Test results published in patent US20260286413A1, “HYALURONAN SYNTHESIS, SECRETION AND LENGTH CONTROL” (UNIVERSITY OF VIRGINIA, priority 2023, published 2026).

Tests used:
X1HAS1 [1] = assay: Substrate turnover rate quantification (UDP release, enzyme-coupled assay); assay type: biochemical, Xenopus laevis; conditions: UDP release
Protocol: UDP release during HA synthesis was quantified using an enzyme-coupled assay as previously described (10, 13). Depletion of NADH was monitored at 340 nm every 60 s for 3 hours at 37° C. in a SpectraMax instrument. The raw data was processed in MS Excel and a linear phase of each reaction was determined. The rate of NADH depletion was converted to pmoles of UDP released using a UDP standardized plot (FIG. S1C) for Michaelis-Menten constant determination using GraphPad Prism. For substrate turnover rate quantification of X1HAS1 mutants, pmoles of released UDP were converted to the number of corresponding substrate turnovers per molecule of X1HAS1, per minute. Data is presented relative to wild type activity. All experiments were performed in four to eight replicates and error bars represent standard deviation from the means.
HAS transfers the UDP-activated glycosyl unit (the donor sugar) to the non-reducing end of the nascent HA polymer (the acceptor sugar). This reaction generates UDP and elongated HA as reaction products (FIG. 1A). Catalytic activity can be assessed by monitoring the release of UDP in an enzyme-coupled reaction, as previously described (10, 13), or quantifying HA, either radiometrically or by dye staining following electrophoresis.

X1HAS1 [2] = assay: Electrophoretic HA size determination (agarose gel, Stains-all) of in vitro synthesized HA; assay type: biochemical, Xenopus laevis; conditions: for HA product versus WT: short and long reactions (1 h or 8 h), not distinguished
Protocol: To assess the size of HA synthesized by X1HAS1, similar reaction conditions were applied to the ones described above. […] […] Controls were carried out by digesting the synthesized polymers with hyaluronidase. Synthesis reactions were mixed with SDS-PAGE loading dye and applied to a 1% agarose gel (Ultra-pure agarose, Invitrogen) casted in an Owl B2 system (ThermoFisher). […] After the run, the gel was equilibrated in 50% ethanol for 1.5 h and subjected to staining in 0.05% Stains-all (Sigma) in 50% ethanol overnight under light-protection. Post-staining background was reduced by soaking the gel in 20% ethanol for 3-7 days in the dark. The migration of the synthesized HA species was compared to HA standards from Streptococcus equi (Sigma), as well as enzymatically generated ladders: HA LoLadder and HA HiLadder (Hyalose).

| Molecule | HA product versus WT (X1HAS1 [2]) | further results |
| --- | --- | --- |
| R496A: X1HAS1 mutant, Arg496 replaced with Ala (protein, UniProt P13563 1-588, looked up, variant R496A) Hyaluronan synthase 1: MKEKAAETMEIPEGIPKDLEPKHPTLWRIIYYSFGVVLLATITAAYVAEFQVLKHEAILFSLGLYGLAMLLHLMMQSLFAFLEIRRVNKSELPCSFKKTVALTIAGYQENPEYLIKCLESCKYVKYPKDKLKIILVIDGNTEDDAYMMEMFKDVFHGEDVGTYVWKGNYHTVKKPEETNKGSCPEVSKPLNEDEGINMVEELVRNKRCVCIMQQWGGKREVMYTAFQAIGTSVDYVQVCDSDTKLDELATVEMVKVLESNDMYGAVGGDVRILNPYDSFISFMSSLRYWMAFNVERACQSYFDCVSCISGPLGMYRNNILQVFLEAWYRQKFLGTYCTLGDDRHLTNRVLSMGYRTKYTHKSRAFSETPSLYLRWLNQQTRWTKSYFREWLYNAQWWHKHHIWMTYESVVSFIFPFFITATVIRLIYAGTIWNVVWLLLCIQIMSLFKSIYACWLRGNFIMLLMSLYSMLYMTGLLPSKYFALLTLNKTGWGTSGAKKIVGNYMPILPLSIWAAVLCGGVGYSIYMDCQNDWSTPEKQKEMYHLLYGCVGYVMYWVIMAVMYWVWVKRCCRKRSQTVTLVHDIPDMCV |  | substrate turnover / catalytic activity compared to WT (X1HAS1 [1]): abolishes catalytic activity |
| R381A: X1HAS1 mutant, Arg381 of QxxRW motif replaced with Ala (protein, UniProt P13563 1-588, looked up, variant R381A) Hyaluronan synthase 1: MKEKAAETMEIPEGIPKDLEPKHPTLWRIIYYSFGVVLLATITAAYVAEFQVLKHEAILFSLGLYGLAMLLHLMMQSLFAFLEIRRVNKSELPCSFKKTVALTIAGYQENPEYLIKCLESCKYVKYPKDKLKIILVIDGNTEDDAYMMEMFKDVFHGEDVGTYVWKGNYHTVKKPEETNKGSCPEVSKPLNEDEGINMVEELVRNKRCVCIMQQWGGKREVMYTAFQAIGTSVDYVQVCDSDTKLDELATVEMVKVLESNDMYGAVGGDVRILNPYDSFISFMSSLRYWMAFNVERACQSYFDCVSCISGPLGMYRNNILQVFLEAWYRQKFLGTYCTLGDDRHLTNRVLSMGYRTKYTHKSRAFSETPSLYLRWLNQQTAWTKSYFREWLYNAQWWHKHHIWMTYESVVSFIFPFFITATVIRLIYAGTIWNVVWLLLCIQIMSLFKSIYACWLRGNFIMLLMSLYSMLYMTGLLPSKYFALLTLNKTGWGTSGRKKIVGNYMPILPLSIWAAVLCGGVGYSIYMDCQNDWSTPEKQKEMYHLLYGCVGYVMYWVIMAVMYWVWVKRCCRKRSQTVTLVHDIPDMCV |  | substrate turnover / catalytic activity compared to WT (X1HAS1 [1]): cannot be replaced |
| C307S: X1HAS1 mutant, Cys307 replaced with Ser (protein, UniProt P13563 1-588, looked up, variant C307S) Hyaluronan synthase 1: MKEKAAETMEIPEGIPKDLEPKHPTLWRIIYYSFGVVLLATITAAYVAEFQVLKHEAILFSLGLYGLAMLLHLMMQSLFAFLEIRRVNKSELPCSFKKTVALTIAGYQENPEYLIKCLESCKYVKYPKDKLKIILVIDGNTEDDAYMMEMFKDVFHGEDVGTYVWKGNYHTVKKPEETNKGSCPEVSKPLNEDEGINMVEELVRNKRCVCIMQQWGGKREVMYTAFQAIGTSVDYVQVCDSDTKLDELATVEMVKVLESNDMYGAVGGDVRILNPYDSFISFMSSLRYWMAFNVERACQSYFDCVSSISGPLGMYRNNILQVFLEAWYRQKFLGTYCTLGDDRHLTNRVLSMGYRTKYTHKSRAFSETPSLYLRWLNQQTRWTKSYFREWLYNAQWWHKHHIWMTYESVVSFIFPFFITATVIRLIYAGTIWNVVWLLLCIQIMSLFKSIYACWLRGNFIMLLMSLYSMLYMTGLLPSKYFALLTLNKTGWGTSGRKKIVGNYMPILPLSIWAAVLCGGVGYSIYMDCQNDWSTPEKQKEMYHLLYGCVGYVMYWVIMAVMYWVWVKRCCRKRSQTVTLVHDIPDMCV | low amounts of polydisperse HA |  |
| C337S: X1HAS1 mutant, Cys337 replaced with Ser (protein, UniProt P13563 1-588, looked up, variant C337S) Hyaluronan synthase 1: MKEKAAETMEIPEGIPKDLEPKHPTLWRIIYYSFGVVLLATITAAYVAEFQVLKHEAILFSLGLYGLAMLLHLMMQSLFAFLEIRRVNKSELPCSFKKTVALTIAGYQENPEYLIKCLESCKYVKYPKDKLKIILVIDGNTEDDAYMMEMFKDVFHGEDVGTYVWKGNYHTVKKPEETNKGSCPEVSKPLNEDEGINMVEELVRNKRCVCIMQQWGGKREVMYTAFQAIGTSVDYVQVCDSDTKLDELATVEMVKVLESNDMYGAVGGDVRILNPYDSFISFMSSLRYWMAFNVERACQSYFDCVSCISGPLGMYRNNILQVFLEAWYRQKFLGTYSTLGDDRHLTNRVLSMGYRTKYTHKSRAFSETPSLYLRWLNQQTRWTKSYFREWLYNAQWWHKHHIWMTYESVVSFIFPFFITATVIRLIYAGTIWNVVWLLLCIQIMSLFKSIYACWLRGNFIMLLMSLYSMLYMTGLLPSKYFALLTLNKTGWGTSGRKKIVGNYMPILPLSIWAAVLCGGVGYSIYMDCQNDWSTPEKQKEMYHLLYGCVGYVMYWVIMAVMYWVWVKRCCRKRSQTVTLVHDIPDMCV | slight length reduction |  |
| C307A: X1HAS1 mutant, Cys307 replaced with Ala (protein, UniProt P13563 1-588, looked up, variant C307A) Hyaluronan synthase 1: MKEKAAETMEIPEGIPKDLEPKHPTLWRIIYYSFGVVLLATITAAYVAEFQVLKHEAILFSLGLYGLAMLLHLMMQSLFAFLEIRRVNKSELPCSFKKTVALTIAGYQENPEYLIKCLESCKYVKYPKDKLKIILVIDGNTEDDAYMMEMFKDVFHGEDVGTYVWKGNYHTVKKPEETNKGSCPEVSKPLNEDEGINMVEELVRNKRCVCIMQQWGGKREVMYTAFQAIGTSVDYVQVCDSDTKLDELATVEMVKVLESNDMYGAVGGDVRILNPYDSFISFMSSLRYWMAFNVERACQSYFDCVSAISGPLGMYRNNILQVFLEAWYRQKFLGTYCTLGDDRHLTNRVLSMGYRTKYTHKSRAFSETPSLYLRWLNQQTRWTKSYFREWLYNAQWWHKHHIWMTYESVVSFIFPFFITATVIRLIYAGTIWNVVWLLLCIQIMSLFKSIYACWLRGNFIMLLMSLYSMLYMTGLLPSKYFALLTLNKTGWGTSGRKKIVGNYMPILPLSIWAAVLCGGVGYSIYMDCQNDWSTPEKQKEMYHLLYGCVGYVMYWVIMAVMYWVWVKRCCRKRSQTVTLVHDIPDMCV | low amounts of polydisperse HA |  |
| R296K: X1HAS1 mutant, Arg296 replaced with Lys (protein, UniProt P13563 1-588, looked up, variant R296K) Hyaluronan synthase 1: MKEKAAETMEIPEGIPKDLEPKHPTLWRIIYYSFGVVLLATITAAYVAEFQVLKHEAILFSLGLYGLAMLLHLMMQSLFAFLEIRRVNKSELPCSFKKTVALTIAGYQENPEYLIKCLESCKYVKYPKDKLKIILVIDGNTEDDAYMMEMFKDVFHGEDVGTYVWKGNYHTVKKPEETNKGSCPEVSKPLNEDEGINMVEELVRNKRCVCIMQQWGGKREVMYTAFQAIGTSVDYVQVCDSDTKLDELATVEMVKVLESNDMYGAVGGDVRILNPYDSFISFMSSLRYWMAFNVEKACQSYFDCVSCISGPLGMYRNNILQVFLEAWYRQKFLGTYCTLGDDRHLTNRVLSMGYRTKYTHKSRAFSETPSLYLRWLNQQTRWTKSYFREWLYNAQWWHKHHIWMTYESVVSFIFPFFITATVIRLIYAGTIWNVVWLLLCIQIMSLFKSIYACWLRGNFIMLLMSLYSMLYMTGLLPSKYFALLTLNKTGWGTSGRKKIVGNYMPILPLSIWAAVLCGGVGYSIYMDCQNDWSTPEKQKEMYHLLYGCVGYVMYWVIMAVMYWVWVKRCCRKRSQTVTLVHDIPDMCV | low molecular weight |  |
| R287K: X1HAS1 mutant, Arg287 replaced with Lys (protein, UniProt P13563 1-588, looked up, variant R287K) Hyaluronan synthase 1: MKEKAAETMEIPEGIPKDLEPKHPTLWRIIYYSFGVVLLATITAAYVAEFQVLKHEAILFSLGLYGLAMLLHLMMQSLFAFLEIRRVNKSELPCSFKKTVALTIAGYQENPEYLIKCLESCKYVKYPKDKLKIILVIDGNTEDDAYMMEMFKDVFHGEDVGTYVWKGNYHTVKKPEETNKGSCPEVSKPLNEDEGINMVEELVRNKRCVCIMQQWGGKREVMYTAFQAIGTSVDYVQVCDSDTKLDELATVEMVKVLESNDMYGAVGGDVRILNPYDSFISFMSSLKYWMAFNVERACQSYFDCVSCISGPLGMYRNNILQVFLEAWYRQKFLGTYCTLGDDRHLTNRVLSMGYRTKYTHKSRAFSETPSLYLRWLNQQTRWTKSYFREWLYNAQWWHKHHIWMTYESVVSFIFPFFITATVIRLIYAGTIWNVVWLLLCIQIMSLFKSIYACWLRGNFIMLLMSLYSMLYMTGLLPSKYFALLTLNKTGWGTSGRKKIVGNYMPILPLSIWAAVLCGGVGYSIYMDCQNDWSTPEKQKEMYHLLYGCVGYVMYWVIMAVMYWVWVKRCCRKRSQTVTLVHDIPDMCV | polydisperse |  |
| R496K: X1HAS1 mutant, Arg496 replaced with Lys (protein, UniProt P13563 1-588, looked up, variant R496K) Hyaluronan synthase 1: MKEKAAETMEIPEGIPKDLEPKHPTLWRIIYYSFGVVLLATITAAYVAEFQVLKHEAILFSLGLYGLAMLLHLMMQSLFAFLEIRRVNKSELPCSFKKTVALTIAGYQENPEYLIKCLESCKYVKYPKDKLKIILVIDGNTEDDAYMMEMFKDVFHGEDVGTYVWKGNYHTVKKPEETNKGSCPEVSKPLNEDEGINMVEELVRNKRCVCIMQQWGGKREVMYTAFQAIGTSVDYVQVCDSDTKLDELATVEMVKVLESNDMYGAVGGDVRILNPYDSFISFMSSLRYWMAFNVERACQSYFDCVSCISGPLGMYRNNILQVFLEAWYRQKFLGTYCTLGDDRHLTNRVLSMGYRTKYTHKSRAFSETPSLYLRWLNQQTRWTKSYFREWLYNAQWWHKHHIWMTYESVVSFIFPFFITATVIRLIYAGTIWNVVWLLLCIQIMSLFKSIYACWLRGNFIMLLMSLYSMLYMTGLLPSKYFALLTLNKTGWGTSGKKKIVGNYMPILPLSIWAAVLCGGVGYSIYMDCQNDWSTPEKQKEMYHLLYGCVGYVMYWVIMAVMYWVWVKRCCRKRSQTVTLVHDIPDMCV |  | HA product versus WT, short reaction (X1HAS1 [2]): slightly increased length; HA product versus WT, long reaction (X1HAS1 [2]; 8 h synthesis reaction): greater polydispersity |
